In US20220098306A1 (published 2022):
Where two headings read alike, the source gives them in different places.

T1: B7H3 (antigen of the affinity statements) (human, UniProt Q5ZPR3 29-466)
T1 chain: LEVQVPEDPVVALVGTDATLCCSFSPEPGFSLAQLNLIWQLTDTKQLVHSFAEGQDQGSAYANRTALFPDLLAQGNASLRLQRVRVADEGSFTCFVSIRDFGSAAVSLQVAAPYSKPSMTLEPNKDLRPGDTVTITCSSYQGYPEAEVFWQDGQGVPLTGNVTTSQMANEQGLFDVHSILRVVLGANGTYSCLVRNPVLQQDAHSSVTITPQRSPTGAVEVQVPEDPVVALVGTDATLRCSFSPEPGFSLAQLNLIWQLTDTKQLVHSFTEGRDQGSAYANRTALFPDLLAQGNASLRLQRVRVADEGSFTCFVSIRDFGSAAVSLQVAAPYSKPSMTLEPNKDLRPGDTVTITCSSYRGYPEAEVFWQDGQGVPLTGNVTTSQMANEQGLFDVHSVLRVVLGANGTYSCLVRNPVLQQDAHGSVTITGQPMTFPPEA

B1: XENP34339 (bispecific antibody)
heavy 1: EVQLLESGGGLVQPGGSLRLSCAASGFTFSSYYMSWVRQAPGKGLEWVSTISESGDSTYYADSVKGRFTISRDNSKNTLYLQMNSLRAEDTAVYYCAKSGPGLRQVGFDYWGQGTLVTVSSASTKGPSVFPLAPSSKSTSGGTAALGCLVKDYFPEPVTVSWNSGALTSGVHTFPAVLQSSGLYSLSSVVTVPSSSLGTQTYICNVNHKPSDTKVDKKVEPKSCDKTHTCPPCPAPPVAGPSVFLFPPKPKDTLMISRTPEVTCVVVDVKHEDPEVKFNWYVDGVEVHNAKTKPREEEYNSTYRVVSVLTVLHQDWLNGKEYKCKVSNKALPAPIEKTISKAKGQPREPQVYTLPPSREEMTKNQVSLTCDVSGFYPSDIAVEWESDGQPENNYKTTPPVLDSDGSFFLYSKLTVDKSRWEQGDVFSCSVMHEALHNHYTQKSLSLSPGK
heavy 2: QVQLVQSGAEVKKPGASVKVSCKASGYIFTNNYMHWVRQAPGQGLEWMGIISPSVGRTAYAQKFQGRVTMTRDTSTSTVYMELSSLRSEDTAVYYCARGGGSSPRLDYWGQGTLVTVSSASTKGPSVFPLAPSSKSTSGGTAALGCLVKDYFPEPVTVSWNSGALTSGVHTFPAVLQSSGLYSLSSVVTVPSSSLGTQTYICNVNHKPSNTKVDKKVEPKSCGKPGSGKPGSQVQLVQSGAEVKKPGASVKVSCKASGYIFTNNYMHWVRQAPGQGLEWMGIISPSVGRTAYAQKFQGRVTMTRDTSTSTVYMELSSLRSEDTAVYYCARGGGSSPRLDYWGQGTLVTVSSASTKGPSVFPLAPSSKSTSGGTAALGCLVKDYFPEPVTVSWNSGALTSGVHTFPAVLQSSGLYSLSSVVTVPSSSLGTQTYICNVNHKPSNTKVDKKVEPKSCDKTHTCPPCPAPPVAGPSVFLFPPKPKDTLMISRTPEVTCVVVDVKHEDPEVKFNWYVDGVEVHNAKTKPREEQYNSTYRVVSVLTVLHQDWLNGKEYKCKVSNKALPAPIEKTISKAKGQPREPQVYTLPPSREQMTKNQVKLTCLVKGFYPSDIAVEWESNGQPENNYKTTPPVLDSDGSFFLYSKLTVDKSRWQQGNVFSCSVMHEALHNHYTQKSLSLSPGK
light: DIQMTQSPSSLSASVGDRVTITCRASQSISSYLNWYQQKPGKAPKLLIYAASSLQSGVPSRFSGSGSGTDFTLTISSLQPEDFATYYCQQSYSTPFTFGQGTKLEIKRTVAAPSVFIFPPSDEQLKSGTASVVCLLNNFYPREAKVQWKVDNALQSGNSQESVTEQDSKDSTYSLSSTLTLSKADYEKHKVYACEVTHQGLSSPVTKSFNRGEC
B2: XENP37808 (bispecific antibody)
heavy 1: EVQLLESGGGLVQPGGSLRLSCAASGFTFSSYYMSWVRQAPGKGLEWVSTISGSGDSTYYADSVKGRFTISRDNSKNTLYLQMNSLRAEDTAVYYCAKSGPGLRQVGFDYWGQGTLVTVSSASTKGPSVFPLAPSSKSTSGGTAALGCLVKDYFPEPVTVSWNSGALTSGVHTFPAVLQSSGLYSLSSVVTVPSSSLGTQTYICNVNHKPSDTKVDKKVEPKSCDKTHTCPPCPAPPVAGPSVFLFPPKPKDTLMISRTPEVTCVVVDVKHEDPEVKFNWYVDGVEVHNAKTKPREEEYNSTYRVVSVLTVLHQDWLNGKEYKCKVSNKALPAPIEKTISKAKGQPREPQVYTLPPSREEMTKNQVSLTCDVSGFYPSDIAVEWESDGQPENNYKTTPPVLDSDGSFFLYSKLTVDKSRWEQGDVFSCSVLHEALHSHYTQKSLSLSPGK
heavy 2: QVQLVQSGAEVKKPGASVKVSCKASGYIFTNNYMHWVRQAPGQGLEWMGIISPSVGRTAYAQKFQGRVTMTRDTSTSTVYMELSSLRSEDTAVYYCARGGGSSPRLDYWGQGTLVTVSSASTKGPSVFPLAPSSKSTSGGTAALGCLVKDYFPEPVTVSWNSGALTSGVHTFPAVLQSSGLYSLSSVVTVPSSSLGTQTYICNVNHKPSNTKVDKKVEPKSCGKPGSGKPGSQVQLVQSGAEVKKPGASVKVSCKASGYIFTNNYMHWVRQAPGQGLEWMGIISPSVGRTAYAQKFQGRVTMTRDTSTSTVYMELSSLRSEDTAVYYCARGGGSSPRLDYWGQGTLVTVSSASTKGPSVFPLAPSSKSTSGGTAALGCLVKDYFPEPVTVSWNSGALTSGVHTFPAVLQSSGLYSLSSVVTVPSSSLGTQTYICNVNHKPSNTKVDKKVEPKSCDKTHTCPPCPAPPVAGPSVFLFPPKPKDTLMISRTPEVTCVVVDVKHEDPEVKFNWYVDGVEVHNAKTKPREEQYNSTYRVVSVLTVLHQDWLNGKEYKCKVSNKALPAPIEKTISKAKGQPREPQVYTLPPSREQMTKNQVKLTCLVKGFYPSDIAVEWESNGQPENNYKTTPPVLDSDGSFFLYSKLTVDKSRWQQGNVFSCSVLHEALHSHYTQKSLSLSPGK
light: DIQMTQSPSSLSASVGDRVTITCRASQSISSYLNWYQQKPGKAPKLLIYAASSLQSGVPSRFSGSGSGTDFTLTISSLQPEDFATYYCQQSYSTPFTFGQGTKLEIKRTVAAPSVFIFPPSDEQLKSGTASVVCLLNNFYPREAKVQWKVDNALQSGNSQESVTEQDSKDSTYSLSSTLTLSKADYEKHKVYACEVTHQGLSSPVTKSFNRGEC
B3: XENP34389 (bispecific antibody)
heavy 1: EVQLLESGGGLVQPGGSLRLSCAASGFTFSNYYMAWVRQAPGKGLEWVSSISTGGGSTYYRDSVKGRFTISRDNSKSTLYLQMNSLRAEDTAVYYCTTDLSAIAATPFAYWGQGTLVTVSSASTKGPSVFPLAPSSKSTSGGTAALGCLVKDYFPEPVTVSWNSGALTSGVHTFPAVLQSSGLYSLSSVVTVPSSSLGTQTYICNVNHKPSDTKVDKKVEPKSCDKTHTCPPCPAPPVAGPSVFLFPPKPKDTLMISRTPEVTCVVVDVKHEDPEVKFNWYVDGVEVHNAKTKPREEEYNSTYRVVSVLTVLHQDWLNGKEYKCKVSNKALPAPIEKTISKAKGQPREPQVYTLPPSREEMTKNQVSLTCDVSGFYPSDIAVEWESDGQPENNYKTTPPVLDSDGSFFLYSKLTVDKSRWEQGDVFSCSVMHEALHNHYTQKSLSLSPGK
heavy 2: not shown
light: DIQMTQSPSSLSASVGDRVTITCRASQNIYTSLAWYQQKPGKAPKLLIYNAHSLQTGIPSRFSGSGSGADFTLTISSLQPEDFATYFCQQYYSGLTFGSGTKLEIKRTVAAPSVFIFPPSDEQLKSGTASVVCLLNNFYPREAKVQWKVDNALQSGNSQESVTEQDSKDSTYSLSSTLTLSKADYEKHKVYACEVTHQGLSSPVTKSFNRGEC
B4: H1_L1.71 (antibody, V domains shown)
VH: EVQLLESGGGLVQPGGSLRLSCAASGFTFSSYAMSWVRQAPGKGLEWVSTISGSGDSTYYADSVKGRFTISRDNSKNTLYLQMNSLRAEDTAVYYCAKSGPGLRQVGFDYWGQGTLVTVSS
VL: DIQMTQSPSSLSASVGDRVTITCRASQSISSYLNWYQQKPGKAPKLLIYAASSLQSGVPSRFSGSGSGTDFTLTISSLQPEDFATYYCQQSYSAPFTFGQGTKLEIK
B5: H1.1_L1.71 (antibody, V domains shown)
VH: EVQLLESGGGLVQPGGSLRLSCAASGFTFSSYYMSWVRQAPGKGLEWVSTISGSGDSTYYADSVKGRFTISRDNSKNTLYLQMNSLRAEDTAVYYCAKSGPGLRQVGFDYWGQGTLVTVSS
VL: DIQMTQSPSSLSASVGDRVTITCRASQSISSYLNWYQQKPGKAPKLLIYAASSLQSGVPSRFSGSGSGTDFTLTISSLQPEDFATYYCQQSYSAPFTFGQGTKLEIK
B6: XENP37810 (bispecific antibody)
heavy 1: EVQLLESGGGLVQPGGSLRLSCAASGFTFSSYYMSWVRQAPGKGLEWVSTISESGDSTYYADSVKGRFTISRDNSKNTLYLQMNSLRAEDTAVYYCAKSGPGLRQVGFDYWGQGTLVTVSSASTKGPSVFPLAPSSKSTSGGTAALGCLVKDYFPEPVTVSWNSGALTSGVHTFPAVLQSSGLYSLSSVVTVPSSSLGTQTYICNVNHKPSDTKVDKKVEPKSCDKTHTCPPCPAPPVAGPSVFLFPPKPKDTLMISRTPEVTCVVVDVKHEDPEVKFNWYVDGVEVHNAKTKPREEEYNSTYRVVSVLTVLHQDWLNGKEYKCKVSNKALPAPIEKTISKAKGQPREPQVYTLPPSREEMTKNQVSLTCDVSGFYPSDIAVEWESDGQPENNYKTTPPVLDSDGSFFLYSKLTVDKSRWEQGDVFSCSVLHEALHSHYTQKSLSLSPGK
heavy 2: QVQLVQSGAEVKKPGASVKVSCKASGYIFTNHYMHWVRQAPGQGLEWMGIISPSAGSTDYAQKFQGRVTMTRDTSTSTVYMELSSLRSEDTAVYYCARGGGSSPRLDYWGQGTLVTVSSASTKGPSVFPLAPSSKSTSGGTAALGCLVKDYFPEPVTVSWNSGALTSGVHTFPAVLQSSGLYSLSSVVTVPSSSLGTQTYICNVNHKPSNTKVDKKVEPKSCGKPGSGKPGSQVQLVQSGAEVKKPGASVKVSCKASGYIFTNHYMHWVRQAPGQGLEWMGIISPSAGSTDYAQKFQGRVTMTRDTSTSTVYMELSSLRSEDTAVYYCARGGGSSPRLDYWGQGTLVTVSSASTKGPSVFPLAPSSKSTSGGTAALGCLVKDYFPEPVTVSWNSGALTSGVHTFPAVLQSSGLYSLSSVVTVPSSSLGTQTYICNVNHKPSNTKVDKKVEPKSCDKTHTCPPCPAPPVAGPSVFLFPPKPKDTLMISRTPEVTCVVVDVKHEDPEVKFNWYVDGVEVHNAKTKPREEQYNSTYRVVSVLTVLHQDWLNGKEYKCKVSNKALPAPIEKTISKAKGQPREPQVYTLPPSREQMTKNQVKLTCLVKGFYPSDIAVEWESNGQPENNYKTTPPVLDSDGSFFLYSKLTVDKSRWQQGNVFSCSVLHEALHSHYTQKSLSLSPGK
light: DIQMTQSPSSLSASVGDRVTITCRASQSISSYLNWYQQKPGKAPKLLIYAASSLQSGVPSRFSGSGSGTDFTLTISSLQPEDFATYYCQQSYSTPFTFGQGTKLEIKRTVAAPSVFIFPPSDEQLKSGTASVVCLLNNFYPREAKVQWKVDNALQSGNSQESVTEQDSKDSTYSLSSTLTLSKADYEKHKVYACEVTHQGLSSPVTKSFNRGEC

What was measured:
CD28-Fc-His protein [1] = molecular target: T2, CD28-Fc-His protein (human, UniProt P10747 19-152); assay: Octet; 1:1 Langmuir
CD28-Fc-His protein [2] = molecular target: T2, CD28-Fc-His protein; assay: Octet; Steady State
[3] = molecular target: T1, B7H3 (antigen of the affinity …); assay: -; monovalent KD
[4] = molecular target: T3, CD28 (antigen of the affinity determinations) (human, UniProt P10747 19-152); assay: -; Fab, 2+1 CLC
[5] = molecular target: T3, CD28 (antigen of the affinity …)
[6] = molecular target: T3, CD28 (antigen of the affinity …); assay: -; scFv VHVL, 1+1 Fab-scFv-Fc

Row | Binder | Kd (CD28-Fc-His protein [1]) [nM] | Kd (CD28-Fc-His protein [2]) [nM] | Kd [4] [nM] | Kd [6] [nM] | also measured
1 | B1 | 96 | 150 | – | – | –
2 | B2 | – | – | 232 | – | Kd [3]: 7.6 nM; Kd [5]: 230 nM
3 | B3 | 790 | 560 | – | – | –
4 | B4 | – | – | – | 180 | –
5 | B5 | – | – | – | 91.6 | –
6 | B6 | – | – | 200 | – | –
